# Article PMC2726290, “Decoding of Methylated Histone H3 Tail by the Pygo-BCL9 Wnt Signaling Complex” (Molecular Cell, 2008)
# Changes are numbered by the printed parent chain.
# B1: H3K4me2 9-mer histone H3 tail peptide (peptide, UniProt P68431 2-10, looked up)
# peptide: ARTKQTARK
# modifications: dimethyl-lysine at K4
# notes: histone H3 tail, 9-mer; the limits follow from the truncated form 'spanning R2-K9 (without A1)'; Only the first seven residues are modelled in the structure; also called 9-mer H3K4me2 peptide
# B2: H3R2me2aK4me2 18-mer histone H3 tail peptide (peptide, UniProt P68431 2-19, looked up)
# peptide: ARTKQTARKSTGGKAPRK
# modifications: asymmetric dimethyl-arginine at R2 (R2me2a); dimethyl-lysine at K4
# notes: histone H3 tail, 18-mer; Only the first seven residues are modelled in the structure; also called 18-mer histone H3 tail carrying both K4me2 and asymmetrically methylated R2 (R2me2a)
# Tests used:
# [1] = molecular target: T1, hPHD-HD1 complex (hPygo1 PHD 333-402 with hBCL9 HD1) (human, UniProt Q9Y3Y4 333-402; O00512 177-205); test: ITC; protein dialysed into 100 mM NaCl, 25 mM Tris-HCl (pH 8.0), 10 uM ZnCl2, 2 mM beta-mercaptoethanol; histone peptides with free PHD or PHD-HD1 complex; one-site model; details: both partners purified
# T1 construct: PHD finger of human Pygo1, amino acids 333-402; also called binary complex; human PHD-HD1 complex; source: E. coli BL21-CodonPlus(DE3)-RIL, coexpressed from a bicistronic vector, purified as a complex; not shown: GST, N-terminal, cleaved; MBP, N-terminal, cleaved
# T1 sequence (looked up) 1: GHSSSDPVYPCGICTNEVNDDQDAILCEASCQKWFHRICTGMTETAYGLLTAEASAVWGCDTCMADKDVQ
# T1 sequence (looked up) 2: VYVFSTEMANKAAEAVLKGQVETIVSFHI
# [2] = molecular target: T2, hPygo1 PHD finger E349A (human, UniProt Q9Y3Y4 333-402, E349A); test: as above; details: both partners purified
# T2 construct: PHD finger of human Pygo1 with E349A; source: E. coli, purified; not shown: GST, N-terminal, cleaved
# T2 sequence (looked up): T1 sequence (looked up) 1 with E17A
Binder,Kd [1],Kd [2]
B1,11 µM,
B2,2.1 µM,
"ARTKQTARKSTGGKA (peptide, UniProt P68431 2-16, looked up, trimethyl-lysine at K4, histone H3 tail, 15-mer) [H3K4me3 15-mer histone H3 tail peptide]",,22 µM
